Assay results: article PMC534114

Biological target: Gab1^F627/659 (Y627F/Y659F) (mouse) (UniProt Q9QYY0)
Chain of UniProt Q9QYY0 (Q9QYY0 whole entry, stated change not applied): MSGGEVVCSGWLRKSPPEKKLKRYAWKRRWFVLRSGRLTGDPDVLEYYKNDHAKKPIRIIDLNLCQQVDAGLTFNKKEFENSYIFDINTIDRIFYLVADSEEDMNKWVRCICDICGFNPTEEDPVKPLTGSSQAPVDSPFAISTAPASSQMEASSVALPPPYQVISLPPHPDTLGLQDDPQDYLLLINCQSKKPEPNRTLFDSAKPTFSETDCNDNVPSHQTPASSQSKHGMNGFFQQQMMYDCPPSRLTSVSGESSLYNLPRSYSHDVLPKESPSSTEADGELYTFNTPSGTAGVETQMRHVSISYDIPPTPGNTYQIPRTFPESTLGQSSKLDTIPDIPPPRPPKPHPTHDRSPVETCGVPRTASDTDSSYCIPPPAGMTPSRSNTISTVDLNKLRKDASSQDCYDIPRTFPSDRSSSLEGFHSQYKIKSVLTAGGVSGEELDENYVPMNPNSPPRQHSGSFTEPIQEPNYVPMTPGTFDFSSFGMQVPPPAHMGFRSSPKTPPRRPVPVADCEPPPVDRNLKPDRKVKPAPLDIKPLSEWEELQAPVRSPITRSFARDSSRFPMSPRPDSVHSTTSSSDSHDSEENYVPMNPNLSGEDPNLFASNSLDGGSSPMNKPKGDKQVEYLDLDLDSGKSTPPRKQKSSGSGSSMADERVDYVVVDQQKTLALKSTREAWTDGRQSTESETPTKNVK

Substance: p85, the regulatory subunit of PI-3 kinase (from UniProt P26450 1-724) (natural protein)
- Gab1-associated PI-3 kinase activity in anti-Gab1 immunoprecipitates after EGF treatment (100 ng/ml, five minutes), relative to wild type Gab1: 2 fold
- basal PI-3 kinase activity in anti-Gab1 immunoprecipitates (PIP3 production), relative to wild type Gab1: 1.6 fold
